Measurements as given in patent publication US7087392B2, “Antiproliferative SgK reagents and methods” (The Regents of the University of California, priority 1999, dated 2006).

Tested on: mammary tumor cells
Experiment: Transient cell foci growth assay of transfected mammary tumor cells
Assay type: cell-based
Details: transfected expression vector, G418 selection
Source text: Functional evidence for a direct role of sgk in the glucocorticoid anti-proliferative pathway. In both the Con8 mammary epithelial tumor cells (from which Sgk was originally cloned) as well as human MCF-7 breast cancer cells (which were originally derived from a pleural effusion of a metastatic human breast adenocarcinoma) glucocorticoids induce a G1 block in cell cycle progression and strongly stimulate sgk transcript and protein production. […] To initially test whether Sgk has an anti-proliferative function and perhaps mediates the glucocorticoid growth inhibitory response, the full length rat or human wild type sgk cDNA was inserted downstream of the cytomegalovirus (CMV) promoter in an expression vector that also encodes the neomycin resistance gene. […] Transfection competent cells were selected in 0.5 mg/ml of the G418 neomycin derivative for two weeks.
Expression vectors encoding several point mutants or truncations of Sgk were transfected into the mammary tumor cells and cell growth monitored by the cell foci assay.
Transient transfection and rapid screen of the sgk expression vectors for the anti-proliferative response in rodent and human mammary tumor cells. A transient cell foci growth assay is employed to rapidly screen the various Sgk constructs to define the domains that mediate the anti-proliferative response in rat and human mammary tumor cells using our optimized conditions. The advantage of this assay is that many different mutant Sgk expression vectors can be simultaneously compared for their growth inhibitory effects. Also, this assay can be used to rapidly assess the proliferative effects of combinations of Sgk and its interacting proteins or substrates. Populations of human MCF-7 breast cancer cells or rat Con8 mammary tumor cells are transfected by the lipofectin transfection procedures and cultured in normally cytotoxic concentrations (750 μg/ml) of the G418 neomycin derivative to recover transfection competent cells. Approximately 5000 transfected cells are cultured as colonies on plastic, and after one to two weeks are fixed and stained in crystal violet/formalin to visualize the cell colonies. The effects on cell proliferation are quantitated by simply counting the resulting cell colonies or by scanning the total cell density on each plate. To provide a control for the fidelity of the cell foci assays, in each experiment, cells transfected with the control vectors (no Sgk sequences) are treated with or without 1 μM dexamethasone because the cells are growth suppressed by this synthetic glucocorticoid. […]

B1: K127M: Sgk with lysine 127 in the ATP binding domain substituted with methionine; kinase dead (protein, UniProt O00141 1-431, looked up, variant K127M)
Serine/threonine-protein …: MTVKTEAAKGTLTYSRMRGMVAILIAFMKQRRMGLNDFIQKIANNSYACKHPEVQSILKISQPQEPELMNANPSPPPSPSQQINLGPSSNPHAKPSDFHFLKVIGKGSFGKVLLARHKAEEVFYAVMVLQKKAILKKKEEKHIMSERNVLLKNVKHPFLVGLHFSFQTADKLYFVLDYINGGELFYHLQRERCFLEPRARFYAAEIASALGYLHSLNIVYRDLKPENILLDSQGHIVLTDFGLCKENIEHNSTTSTFCGTPEYLAPEVLHKQPYDRTVDWWCLGAVLYEMLYGLPPFYSRNTAEMYDNILNKPLQLKPNITNSARHLLEGLLQKDRTKRLGAKDDFMEIKSHVFFSLINWDDLINKKITPPFNPNVSGPNDLRHFDPEFTEEPVPNSIGKSPDSVLVTASVKEAAEAFLGFSYAPPTDSFL
- reduction in number of cell foci compared to the vector control: ~2.5 fold
